The test system of one data set is hTERT-HMEC. In words: percentage of EdU-negative (G0-arrested) nuclei per well, 72 h; higher = more G0 arrest. The settings on record: reference: sequence is the full UniProt precursor, the tested protein was the secreted form or ectodomain.
The subject of another data set is MCF7. Described as above. The settings on record: reference: sequence is the full UniProt precursor, the tested protein was the secreted form or ectodomain.
Where [1] appears, read: protein concentration 0.01975 µM.
Setting [2] is: protein concentration 0.1975 µM.
[3] abbreviates: protein concentration 0.007835 µM.
[4] abbreviates: protein concentration 0.07835 µM.
[5] abbreviates: protein concentration 0.0237143 µM.
The mark [6] stands for this setting: protein concentration 0.237143 µM.

± gives the standard deviation of the averaged measurements.
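Note: secreted proteins added to cultured cells, EdU pulse at the end, nuclei found by Hoechst imaging, EdU status from nuclear versus surrounding ring intensity ratio, PBS as neutral control.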

In the case of “MWGLLLALAAFAPAVGPALGAPRNSVLGLAQPGTTKVPGSTPALHSSPAQPPAETANGTSEQHVRIRVIKKKKVIMKKRKKLTLTRPTPLVTAGPLVTPTPAGTLDPAEKQETGCPPLGLESLRVSDSRLEASSSQSFGLGPHRGRLNIQSGLEDGDLYDGAWCAEEQDADPWFQVDAGHPTRFSGVITQGRNSVWRYDWVTSYKVQFSNDSRTWWGSRNHSSGMDAVFPANSDPETPVLNLLPEPQVARFIRLLPQTWLQGGAPCLRAEILACPVSDPNDLFLEAPASGSSDPLDFQHHNYKAMRKLMKQVQEQCPNITRIYSIGKSYQGLKLYVMEMSDKPGEHELGEPEVRYVAGMHGNEALGRELLLLLMQFLCHEFLRGNPRVTRLLSEMRIHLLPSMNPDGYEIAYHRGSELVGWAEGRWNNQSIDLNHNFADLNTPLWEAQDDGKVPHIVPNHHLPLPTYYTLPNATVAPETRAVIKWMKRIPFVLSANLHGGELVVSYPFDMTRTPWAARELTPTPDDAVFRWLSTVYAGSNLAMQDTSRRPCHSQDFSVHGNIINGADWHTVPGSMNDFSYLHTNCFEVTVELSCDKFPHENELPQEWENNKDALLTYLEQVRMGIAGVVRDKDTELGIADAVIAVDGINHDVTTAWGGDYWRLLTPGDYMVTASAEGYHSVTRNCRVTFEEGPFPCNFVLTKTPKQRLRELLAAGAKVPPDLRRRLERLRGQKD [Q96SM3]”, the “percentage of EdU-negative” value came out at 5.64 ± 1.2% with hTERT-HMEC (setting [1]), 5.93 ± 0.071% with hTERT-HMEC (setting [2]), 26.1 ± 3.2% in the data set with MCF7 (setting [1]) and 28.5 ± 1.1% in the data set with MCF7 (setting [2]).
Turning to “MLPARCARLLTPHLLLVLVQLSPARGHRTTGPRFLISDRDPQCNLHCSRTQPKPICASDGRSYESMCEYQRAKCRDPTLGVVHRGRCKDAGQSKCRLERAQALEQAKKPQEAVFVPECGEDGSFTQVQCHTYTGYCWCVTPDGKPISGSSVQNKTPVCSGSVTDKPLSQGNSGRKDDGSKPTPTMETQPVFDGDEITAPTLWIKHLVIKDSKLNNTNIRNSEKVYSCDQERQSALEEAQQNPREGIVIPECAPGGLYKPVQCHQSTGYCWCVLVDTGRPLPGTSTRYVMPSCESDARAKTTEADDPFKDRELPGCPEGKKMEFITSLLDALTTDMVQAINSAAPTGGGRFSEPDPSHTLEERVVHWYFSQLDSNSSNDINKREMKPFKRYVKKKAKPKKCARRFTDYCDLNKDKVISLPELKGCLGVSKEGRLV [Q9H4F8]”, the “percentage of EdU-negative” value is 4.85 ± 0.098% with hTERT-HMEC (setting [3]), 16.6 ± 0.68% with hTERT-HMEC (setting [4]), 26.5 ± 1.4% in the data set with MCF7 (setting [3]) and 31.1 ± 0.71% in the data set with MCF7 (setting [4]).
On to “MVWRVPPFLLPILFLASHVGAAVDLTLLANLRLTDPQRFFLTCVSGEAGAGRGSDAWGPPLLLEKDDRIVRTPPGPPLRLARNGSHQVTLRGFSKPSDLVGVFSCVGGAGARRTRVIYVHNSPGAHLLPDKVTHTVNKGDTAVLSARVHKEKQTDVIWKSNGSYFYTLDWHEAQDGRFLLQLPNVQPPSSGIYSATYLEASPLGSAFFRLIVRGCGAGRWGPGCTKECPGCLHGGVCHDHDGECVCPPGFTGTRCEQACREGRFGQSCQEQCPGISGCRGLTFCLPDPYGCSCGSGWRGSQCQEACAPGHFGADCRLQCQCQNGGTCDRFSGCVCPSGWHGVHCEKSDRIPQILNMASELEFNLETMPRINCAAAGNPFPVRGSIELRKPDGTVLLSTKAIVEPEKTTAEFEVPRLVLADSGFWECRVSTSGGQDSRRFKVNVKVPPVPLAAPRLLTKQSRQLVVSPLVSFSGDGPISTVRLHYRPQDSTMDWSTIVVDPSENVTLMNLRPKTGYSVRVQLSRPGEGGEGAWGPPTLMTTDCPEPLLQPWLEGWHVEGTDRLRVSWSLPLVPGPLVGDGFLLRLWDGTRGQERRENVSSPQARTALLTGLTPGTHYQLDVQLYHCTLLGPASPPAHVLLPPSGPPAPRHLHAQALSDSEIQLTWKHPEALPGPISKYVVEVQVAGGAGDPLWIDVDRPEETSTIIRGLNASTRYLFRMRASIQGLGDWSNTVEESTLGNGLQAEGPVQESRAAEEGLDQQLILAVVGSVSATCLTILAALLTLVCIRRSCLHRRRTFTYQSGSGEETILQFSSGTLTLTRRPKLQPEPLSYPVLEWEDITFEDLIGEGNFGQVIRAMIKKDGLKMNAAIKMLKEYASENDHRDFAGELEVLCKLGHHPNIINLLGACKNRGYLYIAIEYAPYGNLLDFLRKSRVLETDPAFAREHGTASTLSSRQLLRFASDAANGMQYLSEKQFIHRDLAARNVLVGENLASKIADFGLSRGEEVYVKKTMGRLPVRWMAIESLNYSVYTTKSDVWSFGVLLWEIVSLGGTPYCGMTCAELYEKLPQGYRMEQPRNCDDEVYELMRQCWRDRPYERPPFAQIALQLGRMLEARKAYVNMSLFENFTYAGIDATAEEA”, for which the “percentage of EdU-negative” value worked out at 5.57 ± 1.2% in the data set with hTERT-HMEC (setting [5]), 5.36 ± 0.036% in the data set on hTERT-HMEC (setting [6]), 23.1 ± 1.1% with MCF7 (setting [5]) and 26.39 ± 0.034% in the data set with MCF7 (setting [6]).

Values taken from the supplement of paper PMC11316812.
